This passage reports stoichiometry N results from PMC2676576.

Experiment [1] concerns the target STAM(300-387) of ESCRT-0 core construct b (human) (UniProt Q92783). Kind of experiment: SDS-PAGE and mass spectrometry of dissolved crystals.
Experiment [2] has as its target recombinant full-length human STAM of the full-length ESCRT-0 complex (human) (UniProt Q92783). Kind of experiment: AUC.
For experiment [3] the target is unchanged. The experiment in a line: SEC-MALS.

Chain of recombinant full-length human STAM of the full-length ESCRT-0 complex (human) (Q92783 whole entry, one chain of several): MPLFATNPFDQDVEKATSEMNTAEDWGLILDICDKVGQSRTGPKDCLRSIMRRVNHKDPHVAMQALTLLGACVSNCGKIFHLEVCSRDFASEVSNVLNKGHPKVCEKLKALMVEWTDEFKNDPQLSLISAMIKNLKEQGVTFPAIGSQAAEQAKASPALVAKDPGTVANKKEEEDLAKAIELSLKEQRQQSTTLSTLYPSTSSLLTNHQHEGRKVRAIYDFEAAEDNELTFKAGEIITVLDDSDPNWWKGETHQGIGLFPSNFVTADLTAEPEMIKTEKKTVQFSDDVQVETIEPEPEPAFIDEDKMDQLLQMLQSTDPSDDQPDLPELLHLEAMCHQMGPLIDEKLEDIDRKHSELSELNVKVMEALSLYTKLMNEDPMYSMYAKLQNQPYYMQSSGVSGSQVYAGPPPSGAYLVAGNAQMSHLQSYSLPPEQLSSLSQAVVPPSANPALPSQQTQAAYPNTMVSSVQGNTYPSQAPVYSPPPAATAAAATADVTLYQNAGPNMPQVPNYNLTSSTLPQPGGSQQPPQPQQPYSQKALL
Chain of Hrs(398-557) of ESCRT-0 core construct b (O14964 398-514): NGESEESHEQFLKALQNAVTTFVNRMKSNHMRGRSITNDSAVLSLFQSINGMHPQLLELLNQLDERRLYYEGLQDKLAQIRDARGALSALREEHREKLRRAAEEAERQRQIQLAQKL

As for “Hrs(398-557) of ESCRT-0 core construct b (from UniProt O14964 398-557) (domain or fragment)”, in experiment [1], the stoichiometry N is 1 Hrs:STAM.

As for “recombinant full-length Hrs (mouse Hrs gene) of the full-length ESCRT-0 complex (from UniProt Q99LI8 1-775) (natural protein)”, the stoichiometry N in experiment [2] and in experiment [3] was 1 Hrs:STAM each time.

For orientation: stoichiometry N means the number of molecules, sites or subunits per partner or assembly.
